Assay results from patent US20230192839A1, “ANTIBODIES HAVING CONDITIONAL AFFINITY AND METHODS OF USE THEREOF” (PFIZER INC., priority 2017, published 2023).

Test system: MV4-11 target cells (which express CD33)
Experiment: IL-2 and IFN-γ secretion by CD33-specific conditional CAR T cells after CAR or TCR stimulation
Format: cell-based, human
Conditions: activation via anti-CD33 CAR by MV4-11 cells; 100 µM MTX; 24 hours; FIGS. 6A and 6C
Method: The example examines the levels secretion of the cytokines IL-2 and IFN-γ by conditional CAR T cells containing an anti-CD33 antibody having conditional affinity, after stimulation of the CAR T cell via either i) the CAR in the CAR T cell or ii) the TCR in the CAR T cell. In addition, these were examined in both the presence and absence of methotrexate (MTX).
The anti-CD33 clone used in this example was P02_D09. […] In addition, a tool T cell was prepared as described in Example 4, as were untransduced T cells.
The target cell line used in this assay was MV4-11, as described in Example 5.
Assays were carried out in 96-well plates by culturing 100,000 T cells with various other reagents (depending on the assay), for each of the different T cells described above. Each of the co-cultures contained either 100 µM MTX or 0 µM MTX. In both conditions, 1 mM leucovorin was supplemented to circumvent MTX toxicity. To stimulate the CAR T cells via the anti-CD33 CARs, 100,000 MV4-11 target cells (which express CD33) were included in the culture with the T cells. To stimulate the CAR T cells via the TCR, T cell Activation/Expansion Beads (Miltenyi) were included in the culture with the T cells (i.e. in the absence of target cells). […] The cytokines in the supernatant were measured using U-PLEX Th1/Th2 Combo plates (Meso-Scale Discovery; Rockville, MD) according to the manufacturer’s specifications.

B1: P02_D09: anti-CD33 clone with conditional affinity; VH SEQ ID NO: 35, VL SEQ ID NO: 36; also as scFv in CAR (antibody, V domains shown)
VH: QVQLVESGGGLVQAGGSLRLSCAASRRSSRSWAMHWVRQAPGKGLEWVAVISYDGRLKYYADSVKGRFTISRDNAEYLVYLQMNSLRAEDTAVYYCAAEEGDGGFFDYWGQGTLVTVSS
VL: QSVLTQPPSASGTPGQRVTISCSGSSSNIGSNYVNWYQQLPGTAPKLLIYRNNERPSGVPDRFSGSKSGTSASLAISGLRSEDEADYYCAAWDGSLSGRGVFGTGTKLTVL
modifications: Synthetic Antibody
notes: also as scFv in CAR
IL-2 and IFN-γ production, CAR stimulation, presence of MTX: reduced back to the level comparable to that of unstimulated T cells
